Sequences and labels used below:
B3: N-terminally Strep-tagged ArnA (natural protein, S. acidocaldarius, UniProt Q4J9H4 1-206, looked up)
chain: MTWKCNLCGYENDDDALFCIKCGAQKSSEAQQLPQQQPSEPQAQGVVTQQQVVTNPPVQAQVATPQQPAQQPVLPQPEPAQPQPVSSTPAPQQASQPTNRYYIYFIQTPNENLVNKKVLLNFDLFPSVSMGRSPENIVIVPDSEVSRKHAVIYLDNSELYIEDLNSTNGTYVYDGKQFTPIKGKQKIEPNSIIKLGNQTIVRILKE
notes: ArnA of Sulfolobus acidocaldarius; printed molecular mass of Strep-ArnA 26.8 kDa; also called Strep-ArnA; source: E. coli Rosetta (DE3)/pLysS, purified (heat step, streptavidin beads, SEC); not shown: Strep II, N-terminal, kept

Data set [1] has as its target His-tagged ArnA (S. acidocaldarius). In words: mass photometry; Refeyn OneMP, 20-100 nM protein in 50 mM Tris pH 8.0, 150 mM NaCl; SEC fractions of ArnA, ArnB, ArnA/B complex and phosphorylated ArnA/B complex.
In data set [2] the target is B3. Put plainly: SEC; Superdex 200 (16/600), 50 mM Tris pH 8, 150 mM NaCl; equal amounts of ArnA and ArnB mixed and kept on ice for 1 h; fractions on SDS-PAGE; stoichiometry concluded from SEC and mass photometry together. The conditions noted are these: both partners purified. In general terms: In gel filtration, larger molecules generally elute earlier.
Data set [3] deals with the molecule itself. Put plainly: mass photometry; Refeyn OneMP, 20-100 nM protein in 50 mM Tris pH 8.0, 150 mM NaCl; SEC fractions of ArnA, ArnB, ArnA/B complex and phosphorylated ArnA/B complex.
Data set [4] deals with the molecule itself. In words: SEC; Superdex 200 (16/600), 50 mM Tris pH 8, 150 mM NaCl; equal amounts of ArnA and ArnB mixed and kept on ice for 1 h; fractions on SDS-PAGE; stoichiometry concluded from SEC and mass photometry together.

For the molecule His-tagged ArnA (natural protein), the stoichiometry N in data set [1] is 2.

B1: C-terminally His-tagged ArnB (natural protein, S. acidocaldarius, UniProt Q4J9H3 1-380, looked up)
chain: MTISVKAELSHKYSFTSPLKGVFRLIIVPEKVSTARGFHYIILLDTSGSMYGVKIETAKQGAMELLSRIPEGNKISFLTFSNNVNILSEYADAPSLVQQIKQIRSGGQTVLYRALERAIEIAKKHDLPGYIILLTDGQPTDVPETDAYEKLNYPEAYKVIAFGIGDDYNERLLKVITDKTAGILYHVEDAKEIAEMLPQSAVTEIGAKNVSIDIVSETQVKLLNYPGPPVKLGAVESVVRVYGEIIIPPNFTGRLATVKISYEDPLSSRINRLEVNFDITRANDVKRFLDGINNDLVNEYRYYELMSKLANQLNSNNLSEATRTVEQMQMIAQQTRRMELIETTRRISESIETTRRIGTVEQTRKISKEITSEVTKKLRS
notes: ArnB of Sulfolobus acidocaldarius; printed molecular mass of ArnB-His 43.6 kDa; also called ArnB-His; source: E. coli Rosetta (DE3)/pLysS, purified (heat step, Ni-NTA, SEC); not shown: His, C-terminal, kept
B1: the stoichiometry N in data set [1] and in data set [2] was 1 each time.

B2: phosphorylated ArnA/B complex (complex, S. acidocaldarius)
chain 1: MTWKCNLCGYENDDDALFCIKCGAQKSSEAQQLPQQQPSEPQAQGVVTQQQVVTNPPVQAQVATPQQPAQQPVLPQPEPAQPQPVSSTPAPQQASQPTNRYYIYFIQTPNENLVNKKVLLNFDLFPSVSMGRSPENIVIVPDSEVSRKHAVIYLDNSELYIEDLNSTNGTYVYDGKQFTPIKGKQKIEPNSIIKLGNQTIVRILKE
chain 2: MTISVKAELSHKYSFTSPLKGVFRLIIVPEKVSTARGFHYIILLDTSGSMYGVKIETAKQGAMELLSRIPEGNKISFLTFSNNVNILSEYADAPSLVQQIKQIRSGGQTVLYRALERAIEIAKKHDLPGYIILLTDGQPTDVPETDAYEKLNYPEAYKVIAFGIGDDYNERLLKVITDKTAGILYHVEDAKEIAEMLPQSAVTEIGAKNVSIDIVSETQVKLLNYPGPPVKLGAVESVVRVYGEIIIPPNFTGRLATVKISYEDPLSSRINRLEVNFDITRANDVKRFLDGINNDLVNEYRYYELMSKLANQLNSNNLSEATRTVEQMQMIAQQTRRMELIETTRRISESIETTRRIGTVEQTRKISKEITSEVTKKLRS
modifications: phosphorylated in vitro by the kinase ArnC (sites not given) | phosphorylated in vitro by the kinase ArnC (sites not given)
notes: ArnA of Sulfolobus acidocaldarius; ArnB of Sulfolobus acidocaldarius; Same tag uncertainty as m13; ArnB is the chain that is mainly phosphorylated in the complex; also called phosphorylated oligomeric ArnA/B complex; (ArnA/B)2; source: reconstituted ArnA/B complex (E. coli proteins, SEC-isolated) incubated with ArnC, ATP and Mn2+ at 55°C for 30 min
B2: the “stoichiometry N” value in data set [3] is 2 ArnA/B heterodimers per complex.

In the case of B3, the “stoichiometry N” value in data set [4] is 2.

Usually stoichiometry N stands for a count of units in the complex or per binding partner.

Values taken from article PMC7472852, “The Phosphatase PP2A Interacts With ArnA and ArnB to Regulate the Oligomeric State and the Stability of the ArnA/B Complex” (Frontiers in Microbiology, 2020).
